Measurements reported in patent US20160340421A1 (Regeneron, published 2016).

Assays:
[1] = molecular target: T1, Human GDF8 homodimer (mature human Growth and Differentiation Factor-8) (human, UniProt O14793 267-375); experiment: cell-based or functional assay
T1 sequence: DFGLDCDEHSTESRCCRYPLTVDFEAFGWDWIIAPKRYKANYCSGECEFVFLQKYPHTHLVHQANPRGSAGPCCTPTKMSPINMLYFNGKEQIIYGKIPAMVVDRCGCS

[2] = molecular target: T2, hGDF11 homodimer (human, UniProt O95390 299-407); experiment: cell-based or functional assay
T2 sequence (looked up): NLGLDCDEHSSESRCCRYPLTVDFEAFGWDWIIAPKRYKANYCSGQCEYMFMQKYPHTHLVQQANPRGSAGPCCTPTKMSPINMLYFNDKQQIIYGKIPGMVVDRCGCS

[3] = molecular target: T1, Human GDF8 homodimer (mature human …); experiment: SPR, antibody captured, 25 nM antigen
Protocol: (§1) Equilibrium dissociation constants (KD values) for antigen binding to selected antibodies were determined by surface kinetics using a real-time biosensor surface plasmon resonance assay (BIACORE™ 2000). Each selected antibody was captured on either a goat anti-mouse IgG polyclonal antibody surface or a goat anti-hFc polyclonal antibody (Jackson Immuno Research Lab) surface created through direct chemical coupling to a BIACORE™ chip to form a captured antibody surface. Human GDF8 homodimer, hGDF11 homodimer, or hGDF5 homodimer at 25 nM was injected over the captured antibody surfaces, and antigen-antibody binding and dissociation were monitored in real time at room temperature. Kinetic analysis was performed to calculate KD, dissociation rate constants (kd), association rate constants (ka) and half-life of antigen/antibody complex dissociation (Table 2).

[4] = molecular target: T2, hGDF11 homodimer; experiment: SPR, antibody captured, 25 nM antigen
Protocol: as §1

[5] = molecular target: T1, Human GDF8 homodimer (mature human …); experiment: cell-based or functional assay; remark: listed apart in the source
[6] = molecular target: T2, hGDF11 homodimer; experiment: cell-based or functional assay; remark: listed apart in the source
[7] = molecular target: T3, B48 chimera: GDF8.1-47.BMP2.48-77.GDF8.73-109; experiment: Western blot of CHO.hFurin supernatant, antibody 2 µg/ml
T3 construct: CHO.hFurin supernatant
T3 chain: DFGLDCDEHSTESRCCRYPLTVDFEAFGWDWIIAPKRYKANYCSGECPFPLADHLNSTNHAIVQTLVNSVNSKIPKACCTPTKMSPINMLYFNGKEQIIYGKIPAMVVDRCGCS
Protocol: (§2) The various chimeric GDF8 pro-proteins were transiently transfected in an engineered stable CHO.hFurin cell line. A similar Western Blot analysis as described above was used to detect the binding of various anti-hGDF8 antibodies to each of the chimeric GDF8. Briefly, […] of CHO supernatant were loaded onto each lane of an SDS-PAGE (non-reducing or reducing) gel and electroblotted onto a PVDF membrane. The membrane was then incubated with an anti-GDF8 antibody at 2 μg/ml followed by exposure to the appropriate secondary antibody conjugated to HRP.

[8] = molecular target: T4, T65 chimera: GDF8.1-64.TGFβ1.69-76.GDF8.73-109 (Mus musculus (Mouse), UniProt O08689 268-376); experiment: as above
T4 construct: CHO.hFurin supernatant
T4 chain: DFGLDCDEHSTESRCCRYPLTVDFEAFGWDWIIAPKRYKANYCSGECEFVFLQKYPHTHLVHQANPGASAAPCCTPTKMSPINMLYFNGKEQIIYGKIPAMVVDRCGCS
Protocol: as §2

[9] = molecular target: T5, B91 chimera: GDF8.1-90.BMP2.96-110.GDF8.106-109; experiment: as above
T5 construct: CHO.hFurin supernatant
T5 chain: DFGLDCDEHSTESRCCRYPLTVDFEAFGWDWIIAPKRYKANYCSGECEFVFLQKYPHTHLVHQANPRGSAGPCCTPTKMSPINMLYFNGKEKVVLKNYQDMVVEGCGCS
Protocol: as §2

[10] = molecular target: T2, hGDF11 homodimer; experiment: GDF11-inducible luciferase bioassay, 0.4 nM GDF11 (legend: NB=no binding)
[11] = molecular target: T1, Human GDF8 homodimer (mature human …); experiment: SPR Biacore T100, captured on anti-hFc, 37°C
Protocol: (§3) Additional antigen binding experiments were conducted in which GDF8 and GDF11 were applied over a surface of selected anti-GDF8 antibodies and control antibodies at 25° C. and 37° C. Equilibrium dissociation constants (KD values) for antigen binding to selected antibodies were determined by surface kinetics using a real-time biosensor surface plasmon resonance assay (BIACORE™ T100). […] Various concentrations (2.5-0.625 nM, 2-fold dilutions) of hGDF8 homodimer or hGDF11 homodimer (or in some experiments, Activin A) were injected over the captured antibody surfaces, and antigen-antibody binding and dissociation were monitored in real time. Kinetic analysis was performed to calculate KD, dissociation rate constants (kd), association rate constants (ka) and half-life of antigen/antibody complex dissociation. (NB=no binding observed).

[12] = molecular target: T1, Human GDF8 homodimer (mature human …); experiment: SPR Biacore T100, captured on anti-hFc, 25°C
Protocol: as §3

[13] = molecular target: T6, GDF8/TGFβ[48-72] chimera (T48): GDF8.1-47.TGFβ1.49-76.GDF8.73-109 (human GDF8 with human TGFβ-1 sequence); experiment: cell-based or functional assay
T6 chain: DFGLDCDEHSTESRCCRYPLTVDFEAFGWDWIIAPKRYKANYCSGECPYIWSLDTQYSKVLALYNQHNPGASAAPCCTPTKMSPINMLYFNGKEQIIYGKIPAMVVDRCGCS

[14] = molecular target: T1, Human GDF8 homodimer (mature human …); experiment: SPR, antibody captured, buffer without BSA
Protocol: as §1

[15] = molecular target: T2, hGDF11 homodimer; experiment: SPR, antibody captured, buffer without BSA
Protocol: as §1

B1: 21-E5 (antibody, V domains shown)
VH: QVQLVESGPGLVKPSETLSLTCTVYGGSISSGNYYWGWIRQPPGKGLEWIGTIYYSGSAYYNPSLKSRVTMSVDTSKNQFSLKLSSVTAADTAVYYCVRDYYDSSGHYYNWFDPWGQGTTVTVSS
VL: AIQMTQSPSSLSASVGDRVTITCRASQDIRHDLGWYQQKPGKAPKRLIYAASSLQSGVPSRFSGSGSGTEFTLTISSLQPEDFATYYCLQHNTYPWTFGQGTKVEIKR
IC50, GDF8-inducible luciferase, A204/Smad2 cells, 0.8 nM GDF8 [1]: 8.5 nM | IC50, GDF11-inducible luciferase, A204/Smad2 cells, 0.8 nM GDF11 [2]: 35 nM | Kd [3]: 0.26 nM | T1/2 [3]: 2.3 h | Kd [4]: 0.12 nM | T1/2 [4]: 1.93 h | IC50, luciferase bioassay, 0.5 nM GDF8 [5]: 2.34 nM | IC50, luciferase bioassay, 1 nM GDF8 [5]: 2.98 nM | IC50, luciferase bioassay, 0.4 nM GDF11 [6]: 6.9 nM | IC50, luciferase bioassay, 0.8 nM GDF11 [6]: 10.5 nM

B2: 1A2 (antibody, V domains shown)
VH: EVQLLESGGGLVQPGGSLRLSCAASGFTSITYAMSWVRQAPGKGLEWVSAISVSGTNTYYADSVKGRFTISRDKSKNMLYLQMNSLRAEDTAVYYCAKDLLHNWKYGTFDIWGQGTMVTVSS
VL: EIVMTQSPATLSVSPGERATLSCRASQSVDSNLVWYQQKPGQVPRLLIYGASTRATGIPARFSGSGSGTEFTLTISSLQSEDFAVYYCQQYNKWPLTFGGGTKVEIK
notes: also called 1A2 mAb
binding result [7]: binds | binding result [8]: binds | binding result [9]: binds | IC50, GDF8-inducible luciferase, A204/Smad2 cells, 0.8 nM GDF8 [1]: 0.8 nM | IC50, GDF11-inducible luciferase, A204/Smad2 cells, 0.8 nM GDF11 [2]: 1400 nM | Kd [3]: 0.32 nM | T1/2 [3]: 1 h | Kd [4]: 0.3 nM | T1/2 [4]: 0.467 h | IC50, luciferase bioassay, 0.5 nM GDF8 [5]: 0.196 nM | IC50, luciferase bioassay, 1 nM GDF8 [5]: 0.363 nM | IC50, luciferase bioassay, 0.4 nM GDF11 [6]: ~600 nM | IC50, luciferase bioassay, 0.8 nM GDF11 [6]: ~800 nM

B3: H4H1669P (antibody, V domains shown)
VH: QVQLVESGGGVVQPGKSLRLSCAASGFTFSSFGMHWVRQAPGKGLEWVAVIGYDGGNEYYADSVKGRFTISRDNSKNTLNLQMSSLRAEDTAVYYCSTISHYDILSGMDVWGRGTTVTVSS
VL: DIQMTQSPSSVSASVGDRVTITCRASQGISNWLAWYQQKPGKAPKLLIFAASSLQSGVPSRFSGSASGTDFTLTINSLQPEDFATYYCQQANSFPLTFGGGTKVEIKR
notes: captured by anti-hFc, so human Fc
binding result [10]: no binding | Kd [11]: 0.0584 nM | T1/2 [11]: 0.667 h | Kd [12]: 0.0393 nM | T1/2 [12]: 2.18 h | IC50, luciferase bioassay, 0.5 nM GDF8 [5]: 0.9 nM

B4: 1A2-hFc (antibody, V domains shown)
VH: EVQLLESGGGLVQPGGSLRLSCAASGFTSITYAMSWVRQAPGKGLEWVSAISVSGTNTYYADSVKGRFTISRDKSKNMLYLQMNSLRAEDTAVYYCAKDLLHNWKYGTFDIWGQGTMVTVSS
VL: EIVMTQSPATLSVSPGERATLSCRASQSVDSNLVWYQQKPGQVPRLLIYGASTRATGIPARFSGSGSGTEFTLTISSLQSEDFAVYYCQQYNKWPLTFGGGTKVEIK
approximate IC50, luciferase bioassay with GDF8/TGFβ[48-72] conditioned medium [13]: 0.357 nM

B5: 21-A2 (antibody, V domains shown)
VH: QVQLVQSGGGLVQPGGSLRLSCAASGFTFNTYAISWVRQAPGKGLEWVSTITGSGYNTYYADSVKGRFTISRDNSKNTLYLQMSSLRAEDTAVFYCAKDSRYNWNYGIFDYWGQGTTVTVSS
VL: DIQMTQSPATLSVSPGERATLSCRASQSVSSNLAWYHQKPGQAPRLLIYGVSTRATGIPARFSGNGSGTEFTLTISSLQSEDFAVYYCQQHNNWPLTFGGGTKVEIKR
IC50, GDF8-inducible luciferase, A204/Smad2 cells, 0.8 nM GDF8 [1]: 9.7 nM | IC50, GDF11-inducible luciferase, A204/Smad2 cells, 0.8 nM GDF11 [2]: > 10 nM | Kd [3]: 0.4 nM | T1/2 [3]: 1.3 h | Kd [4]: 0.9 nM | T1/2 [4]: 0.35 h

B6: 1A2-hIgG (antibody, V domains shown)
VH: EVQLLESGGGLVQPGGSLRLSCAASGFTSITYAMSWVRQAPGKGLEWVSAISVSGTNTYYADSVKGRFTISRDKSKNMLYLQMNSLRAEDTAVYYCAKDLLHNWKYGTFDIWGQGTMVTVSS
VL: EIVMTQSPATLSVSPGERATLSCRASQSVDSNLVWYQQKPGQVPRLLIYGASTRATGIPARFSGSGSGTEFTLTISSLQSEDFAVYYCQQYNKWPLTFGGGTKVEIK
notes: variable domains of 1A2
Kd [14]: 0.006 nM | T1/2 [14]: 5.67 h | Kd [15]: 0.64 nM | T1/2 [15]: 6 min

B7: 1A2-hIgG1 (antibody, V domains shown)
VH: EVQLLESGGGLVQPGGSLRLSCAASGFTSITYAMSWVRQAPGKGLEWVSAISVSGTNTYYADSVKGRFTISRDKSKNMLYLQMNSLRAEDTAVYYCAKDLLHNWKYGTFDIWGQGTMVTVSS
VL: EIVMTQSPATLSVSPGERATLSCRASQSVDSNLVWYQQKPGQVPRLLIYGASTRATGIPARFSGSGSGTEFTLTISSLQSEDFAVYYCQQYNKWPLTFGGGTKVEIK
notes: variable domains of 1A2; also called 1A2-hlgG1
Kd [11]: 0.0462 nM | T1/2 [11]: 0.65 h | Kd [12]: 0.0623 nM | T1/2 [12]: 1.6 h

B8: 1A2-mIgG (antibody, V domains shown)
VH: EVQLLESGGGLVQPGGSLRLSCAASGFTSITYAMSWVRQAPGKGLEWVSAISVSGTNTYYADSVKGRFTISRDKSKNMLYLQMNSLRAEDTAVYYCAKDLLHNWKYGTFDIWGQGTMVTVSS
VL: EIVMTQSPATLSVSPGERATLSCRASQSVDSNLVWYQQKPGQVPRLLIYGASTRATGIPARFSGSGSGTEFTLTISSLQSEDFAVYYCQQYNKWPLTFGGGTKVEIK
notes: variable domains of 1A2
Kd [14]: 0.018 nM | T1/2 [14]: 2.53 h | Kd [15]: 0.926 nM | T1/2 [15]: 1 min
